Test results as given in patent US20180172709A1.

Target: recombinant Syrian golden hamster proteinase K-sensitive prion protein (residues 23-231) (Syrian golden hamster) (UniProt Q60468)
Experiment: cell-based or functional assay

Substance: hamster proteinase K resistant prion protein (263K scrapie strain), purified from hamster brains or (from UniProt P04273 23-231)
- amount of PrP^Sc seed detected, 4-hour QUIC at 65° C.: 100 fg
- amount of PrP^Sc seed detected, 8-hour QUIC at 55° C.: 10 fg
- amount of PrP^Sc seed detected, triplicate 18-hour QUIC at 55° C.: 1 fg
- amount of PrP^Sc seed frequently positive, first 48-hour QUIC round: 25 to 50 ag
- amount of PrP^Sc seed positive in one sample, second serial QUIC round: 10 ag
